Assay results as given in PMC4066763, “Programmable DNA-binding proteins from Burkholderia provide a fresh perspective on the TALE-like repeat domain”.
Numbering of substitutions follows the chain as printed.

B1: BEBat3, EMSA (dsDNA)
DNA 1: TAGACATAGATTATTATATTTGTAACAAGTAAATGC
DNA 2: GCATTTACTTGTTACAAATATAATAATCTATGTCTA
B2: BEBat1 (T0), EMSA (dsDNA)
DNA 1: TAGACTAAGAGAAGCAAAGACGTTATATGC
DNA 2: GCATATAACGTCTTTGCTTCTCTTAGTCTA
B3: BEBat1 G-0, MST (dsDNA)
DNA 1: B2 DNA 1 with T6G
DNA 2: B2 DNA 2 with A25C
B4: BEBat2, EMSA (dsDNA)
DNA 1: TAGACTTTGTTGAAAAGTTGTAAAAACATTATATGC
DNA 2: GCATATAATGTTTTTACAACTTTTCAACAAAGTCTA
B5: BEBat1 C-0, MST (dsDNA)
DNA 1: B2 DNA 1 with T6C
DNA 2: B2 DNA 2 with A25G
B6: BEBat1 A-0, MST (dsDNA)
DNA 1: B2 DNA 1 with T6A
DNA 2: B2 DNA 2 with A25T
B7: BEBat1 T-0, MST (dsDNA)
DNA 1: B2 DNA 1
DNA 2: B2 DNA 2

What was measured:
Bat3 = target: T1, Bat3 (Burkholderia rhizoxinica HKI 0454, UniProt E5AW43 1-311); assay: EMSA; 100 nM protein, 10 nM DNA, poly dI.dC; EMSA: 15 mM Tris-Cl, 75 mM KCl, 2.5 mM DTT, 0.063% NP-40, 62.5 ng/ul dI.dC, 0.125 mg/ml BSA, 6.25% glycerol, 6.25 mM MgCl2, 0.125 mM EDTA, room temp, gel at 4 C; MST: 20 mM Tris pH 7.4, 150 mM NaCl, 10 mM MgCl2, 0.05% Tween, room temp, 100 nM labelled Bat1; details: protein: recombinant; tags: N-terminal His; label: 5' Cy5 forward strand
T1 sequence: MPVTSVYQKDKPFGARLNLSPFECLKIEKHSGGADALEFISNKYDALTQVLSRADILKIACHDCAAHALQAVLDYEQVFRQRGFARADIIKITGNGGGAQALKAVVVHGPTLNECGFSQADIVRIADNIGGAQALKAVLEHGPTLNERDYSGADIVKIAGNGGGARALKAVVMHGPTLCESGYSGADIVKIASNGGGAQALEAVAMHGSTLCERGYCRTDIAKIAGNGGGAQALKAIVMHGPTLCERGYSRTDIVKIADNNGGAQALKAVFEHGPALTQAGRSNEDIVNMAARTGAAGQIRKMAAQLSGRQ

Bat1 (BurrH) [1] = target: T2, Bat1 (BurrH) (Burkholderia rhizoxinica HKI 0454, UniProt E5AV36 1-771); assay: as above; details: protein: recombinant; tags: N-terminal His; label: 5' Cy5 forward strand
T2 sequence: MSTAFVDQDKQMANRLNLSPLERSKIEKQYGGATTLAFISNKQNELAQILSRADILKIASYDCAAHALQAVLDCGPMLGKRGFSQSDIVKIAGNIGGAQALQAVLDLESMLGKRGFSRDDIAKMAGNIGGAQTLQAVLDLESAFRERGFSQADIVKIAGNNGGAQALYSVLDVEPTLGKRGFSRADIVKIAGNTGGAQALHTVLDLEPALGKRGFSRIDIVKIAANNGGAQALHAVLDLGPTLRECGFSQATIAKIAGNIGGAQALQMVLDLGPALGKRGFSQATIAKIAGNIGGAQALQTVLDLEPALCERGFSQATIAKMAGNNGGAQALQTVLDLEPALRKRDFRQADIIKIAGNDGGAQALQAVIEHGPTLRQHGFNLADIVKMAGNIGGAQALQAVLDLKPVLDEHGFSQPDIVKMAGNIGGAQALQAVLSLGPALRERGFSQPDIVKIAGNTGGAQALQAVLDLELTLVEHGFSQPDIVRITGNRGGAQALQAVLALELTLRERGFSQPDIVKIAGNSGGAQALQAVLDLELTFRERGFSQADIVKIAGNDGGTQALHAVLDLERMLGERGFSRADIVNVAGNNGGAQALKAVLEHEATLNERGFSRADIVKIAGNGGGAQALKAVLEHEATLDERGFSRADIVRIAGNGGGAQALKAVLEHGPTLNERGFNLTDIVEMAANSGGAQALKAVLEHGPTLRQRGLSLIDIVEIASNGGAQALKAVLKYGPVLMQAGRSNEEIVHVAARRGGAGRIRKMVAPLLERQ

Bat2 = target: T3, Bat2 (Burkholderia rhizoxinica HKI 0454, UniProt E5AW45 1-997); assay: as above; details: protein: recombinant; tags: N-terminal His; label: 5' Cy5 forward strand
T3 sequence: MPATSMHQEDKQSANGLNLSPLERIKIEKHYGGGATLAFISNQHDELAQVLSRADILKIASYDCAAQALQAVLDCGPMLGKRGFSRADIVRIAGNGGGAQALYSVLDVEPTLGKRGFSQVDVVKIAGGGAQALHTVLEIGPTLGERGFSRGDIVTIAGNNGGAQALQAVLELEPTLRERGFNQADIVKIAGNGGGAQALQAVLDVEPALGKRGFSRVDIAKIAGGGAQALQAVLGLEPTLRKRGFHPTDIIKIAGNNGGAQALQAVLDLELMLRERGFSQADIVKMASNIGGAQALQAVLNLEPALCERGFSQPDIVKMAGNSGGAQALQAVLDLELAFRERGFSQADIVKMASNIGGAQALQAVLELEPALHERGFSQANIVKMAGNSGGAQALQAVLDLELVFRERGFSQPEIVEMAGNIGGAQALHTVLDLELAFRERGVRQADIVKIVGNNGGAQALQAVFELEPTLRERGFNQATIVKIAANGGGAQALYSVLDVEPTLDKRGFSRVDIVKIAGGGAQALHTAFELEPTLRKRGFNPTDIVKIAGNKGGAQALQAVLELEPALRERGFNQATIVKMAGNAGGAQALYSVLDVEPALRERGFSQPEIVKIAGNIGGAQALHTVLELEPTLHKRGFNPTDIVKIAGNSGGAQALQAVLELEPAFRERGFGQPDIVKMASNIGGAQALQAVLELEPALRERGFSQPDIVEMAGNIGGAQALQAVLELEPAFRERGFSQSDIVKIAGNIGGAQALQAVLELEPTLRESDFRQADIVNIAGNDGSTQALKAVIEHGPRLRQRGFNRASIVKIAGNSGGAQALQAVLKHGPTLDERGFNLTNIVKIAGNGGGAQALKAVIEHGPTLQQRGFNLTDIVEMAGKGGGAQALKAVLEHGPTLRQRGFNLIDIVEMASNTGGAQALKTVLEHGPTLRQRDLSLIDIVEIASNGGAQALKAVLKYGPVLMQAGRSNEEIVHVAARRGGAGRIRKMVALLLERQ

Bat1 (BurrH) [2] = target: T2, Bat1 (BurrH); assay: MST; 10 mM MgCl2; EMSA: 15 mM Tris-Cl, 75 mM KCl, 2.5 mM DTT, 0.063% NP-40, 62.5 ng/ul dI.dC, 0.125 mg/ml BSA, 6.25% glycerol, 6.25 mM MgCl2, 0.125 mM EDTA, room temp, gel at 4 C; MST: 20 mM Tris pH 7.4, 150 mM NaCl, 10 mM MgCl2, 0.05% Tween, room temp, 100 nM labelled Bat1; details: protein: recombinant; tags: N-terminal His; label: none (stated unlabelled)

| Binder | binding result (Bat3) | binding result (Bat2) | binding result (Bat1 (BurrH) [2]) | also measured |
| --- | --- | --- | --- | --- |
| B1 | no binding | no binding |  | binding result (Bat1 (BurrH) [1]): no binding |
| B2 | no binding | no binding |  |  |
| B3 |  |  | binds |  |
| B4 | no binding | binds |  | binding result (Bat1 (BurrH) [1]): no binding |
| B5 |  |  | binds |  |
| B6 |  |  | binds |  |
| B7 |  |  |  | Kd (Bat1 (BurrH) [2]): 132 nM |
